Experimental data reported in patent US20250277030A1 (Zymeworks, published 2025).

What was measured:
[1] = biological target: T1, human sodium-dependent phosphate transporter 2B (NaPi2b) (human, UniProt O95436 1-690); assay: flow cytometry on IGROV-1 cells (endogenous NaPi2b), 24 h at 4 C, anti-human IgG Fc AF647 detection
T1 construct: UniProt ID is given as 095436 [sic]; also called hNaPi2b; Hu NaPi2b
T1 sequence: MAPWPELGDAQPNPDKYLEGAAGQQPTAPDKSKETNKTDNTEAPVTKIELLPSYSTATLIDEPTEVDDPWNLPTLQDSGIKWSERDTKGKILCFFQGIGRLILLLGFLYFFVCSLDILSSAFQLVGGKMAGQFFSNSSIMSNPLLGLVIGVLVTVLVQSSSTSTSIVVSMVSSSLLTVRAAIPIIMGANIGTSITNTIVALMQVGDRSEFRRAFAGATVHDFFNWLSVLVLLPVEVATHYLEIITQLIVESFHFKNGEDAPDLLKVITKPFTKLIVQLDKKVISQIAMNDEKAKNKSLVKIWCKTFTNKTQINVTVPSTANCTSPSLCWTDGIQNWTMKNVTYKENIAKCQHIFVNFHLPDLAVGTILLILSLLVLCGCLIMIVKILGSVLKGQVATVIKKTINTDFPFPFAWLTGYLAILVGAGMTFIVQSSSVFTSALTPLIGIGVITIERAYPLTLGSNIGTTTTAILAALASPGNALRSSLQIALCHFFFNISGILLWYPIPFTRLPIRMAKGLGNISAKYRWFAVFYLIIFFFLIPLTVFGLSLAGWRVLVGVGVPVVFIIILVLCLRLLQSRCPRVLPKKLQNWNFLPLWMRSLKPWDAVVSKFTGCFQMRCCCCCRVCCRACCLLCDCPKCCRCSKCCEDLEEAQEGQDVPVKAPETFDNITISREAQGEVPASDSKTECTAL
Description: (§1) Briefly, cells were seeded at 50,000 cells/well in conical-bottom 96-well plates and treated with test antibody for 24 hours at 4° C. to prevent internalization. […] Following incubation, cells were washed and stained with anti-Human IgG Fc AF647 conjugate (Jackson Immuno Research Labs, West Grove, PA; Cat. No. 109-605-098) at 4° C. for 30 min. Following incubation and washing, fluorescence was detected by flow cytometry on a BD LSRFortessa™ Cell Analyzer (BD Biosciences, Franklin Lake, NJ) with 1,000 minimum events collected per well. The AF647/APC-A GeoMean (fluorescence signal geometric mean, proportional to anti-Human AF647 binding) was calculated for the live cell population using FlowJo™ Version 10.8.1 (BD Biosciences, Franklin Lake, NJ) and plotted for each test antibody using GraphPad Prism Version 9 (GraphPad Software, San Diego, CA).
(§2) The ability of the humanized antibody variants v38591 and v29456 to bind to NaPi2b expressed on cells was assessed on endogenous NaPi2b-expressing tumor cell lines IGROV-1 (ovarian adenocarcinoma) and TOV-21G (ovarian carcinoma) by flow cytometry.
(§3) Cellular binding was performed according to methods described in Example 13.

[2] = biological target: T1, human sodium-dependent phosphate …; assay: flow cytometry on TOV-21G cells (endogenous NaPi2b), 24 h at 4 C, anti-human IgG Fc AF647 detection
Description: as §1, §2, §3

[3] = biological target: T1, human sodium-dependent phosphate …; assay: flow cytometry, HCC-78 cells (endogenous NaPi2b)
Description: Briefly, HEK293-6e cells were transfected for ˜24 hours to transiently express human NaPi2b, cynomolgus or mouse NaPi2b, at 1 μg of DNA per 1 million cells. Following transfection, 50,000 cells per well were seeded in V-bottom 96-well plates and incubated with 200 nM of primary antibody for 18-24 hours at 4° C. to prevent internalization. Post-incubation, cells were washed and stained with anti-Human IgG Fc AF647 conjugate (Jackson Immuno Research Labs, West Grove, PA, Cat. No. 109-605-098, Lot. No. 124868) at 4° C. for 1 hour. Following staining and washing, fluorescence was detected by flow cytometry on BD LSRFortessa™ Cell Analyzer (BD Biosciences, Franklin Lake, NJ) with 10,000 minimum events collected per well. The AF647/APC-A GeoMean (fluorescence signal geometric mean, proportional to anti-Human AF647 binding) was calculated for the live singlet cell population for each primary antibody using FlowJo™ v8 software (BD Biosciences, Franklin Lake, NJ). The Bmax and Kd of each primary antibody were calculated using GraphPad Prism Version 9 (GraphPad Software, San Diego, CA)
The ability of ADCs to bind to cells expressing NaPi2b was assessed. […] Binding to endogenous high NaPi2b-expressing cell lines IGROV-1 and HCC-78 was assessed by flow cytometry according to methods described in Example 5.

EC50 (read off the curve) [1]: ~1 nM | EC50 (read off the curve) [2]: ~0.7 nM | Bmax [3]: 21800
B1: v29456 humanized anti-NaPi2b antibody (H1L2) (antibody, human IgG1, kappa)
heavy: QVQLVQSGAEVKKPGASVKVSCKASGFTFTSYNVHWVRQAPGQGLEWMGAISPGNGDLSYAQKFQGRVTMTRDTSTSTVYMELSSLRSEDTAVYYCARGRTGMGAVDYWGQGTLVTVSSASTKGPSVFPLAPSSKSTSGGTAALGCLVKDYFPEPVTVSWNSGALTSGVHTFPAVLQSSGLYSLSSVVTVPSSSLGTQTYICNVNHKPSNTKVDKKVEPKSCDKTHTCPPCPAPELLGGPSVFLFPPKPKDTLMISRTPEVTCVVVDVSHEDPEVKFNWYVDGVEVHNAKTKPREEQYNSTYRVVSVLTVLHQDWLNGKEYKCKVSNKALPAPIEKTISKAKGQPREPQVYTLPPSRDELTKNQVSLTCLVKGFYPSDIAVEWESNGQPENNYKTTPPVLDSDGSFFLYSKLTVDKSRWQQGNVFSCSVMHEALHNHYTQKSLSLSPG
light: DVQMTQSPSSLSASVGDRVTITCRASQDVYSYLNWYQQKPGKAVKLLIYYTSRLQSGVPSRFSGSGSGTDYTLTISSLQPEDFATYYCQQYNIFPWTFGQGTKLEIKRTVAAPSVFIFPPSDEQLKSGTASVVCLLNNFYPREAKVQWKVDNALQSGNSQESVTEQDSKDSTYSLSSTLTLSKADYEKHKVYACEVTHQGLSSPVTKSFNRGEC
